The values below come from patent US20210101992A1 (KIRA BIOTECH, published 2021).

A word on the EC50 (read off the curve): it is the concentration giving half of the maximal effect. Read a low EC50 (read off the curve) as higher potency in that assay.

T1: CD83-His (ectodomain of human CD83 with 6x Histidine tag) (human, UniProt Q01151 20-144)
T1 construct: extracellular domain; Expressed in mammalian cells; also called hCD83-His; recombinant CD83-His; not shown: 6x Histidine tag
T1 sequence (looked up): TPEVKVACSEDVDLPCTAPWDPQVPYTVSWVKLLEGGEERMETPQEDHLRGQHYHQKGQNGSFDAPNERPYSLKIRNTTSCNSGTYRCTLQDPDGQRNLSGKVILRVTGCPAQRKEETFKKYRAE

T2: CD83-Fc (human CD83 ectodomain, Fc tagged) (human, UniProt Q01151 20-144)
T2 construct: extracellular domain; The construct is not described beyond 'hCD83 ectodomain (Fc and His tagged)'; also called hCD83-Fc; not shown: Fc tag
T2 sequence (looked up): T1 sequence (looked up)

B1: hFab4.10 (Fab, V domains shown)
VH: EVQLVQSGGAVVQPGRSLRLSCAASGFTFSTYGMHWVRQAPGKGLEWVAAVSYDGSNKYYADFVKGRFTISRDNPKNTLYLQMNSLRADDTAVYYCARRGGLDIWGQGTTVTVSS
VL: LTQPPSASGTPGQGVTISCRGSTSNIGNNVVNWYQHVPGSAPKLLIWSNIQRPSGIPDRFSGSKSGTSASLAISGLQSEDEAVYYCAVWDDGLAGWVFGGGTTVTVLS
notes: Light chain shuffled variant of 1F7
B2: hFab4.8 (Fab, V domains shown)
VH: B1 VH
VL: MTQSPSSLSASVGDRVTITCQASQDISNYLNWYQQKPGKAPKLLIYDASNLETGVPSRFSGSGSGTDFTFTISSLQPDDFATYYCQQTYSWPRTFGQGTKLEIKR
notes: Light chain shuffled variant of 1F7, expressed as hFab in the E. coli periplasm
B3: hFab4.1 (Fab, V domains shown)
VH: B1 VH
VL: VTQPPSASGTPGQRVTISCSGSSSNIGTNPVNWYQQLPGTAPKLLIYTTDQRPSGVPDRFSGSKSGTSASLAISGLQSEDEADYYCAAWDDSLSGLYVFGTGTKVTVLG
notes: as for B1
B4: hFab4.12 (Fab, V domains shown)
VH: B1 VH
VL: MTQAPVVSVALEQTVRITCQGDSLAIYYDFWYQHKPGQAPVLVIYGKNNRPSGIPHRFSGSSSNTDSLTITGAQAEDEADYYCNSRDSSGNHWVFGGGTNLTVLG
notes: as for B1
B5: hFab4.5 (Fab, V domains shown)
VH: B1 VH
VL: LTQSPLSLPVTLGQPASISCKSSQSLVDSDGNTYLNWFQQRPGQSPRRLIYKVSNRDSGVPDRFSGSGSGTDFTLKISRVEAEDVGVYYCMQGTHWPRTFGQGTKVEIKR
notes: as for B2
B6: hFab4.2 (Fab, V domains shown)
VH: B1 VH
VL: MTHTPLSLSVTPGQPASISCKSSQSLLHSDGKTYLYWYLQRPGQSPQPLIYEVSNRFSGVPDRFSGSGSGTDFTLKISRVEAEDVGVYYCMQSLQLWTFGQGTKVEIKR
notes: as for B1
B7: hFab4.9 (Fab, V domains shown)
VH: B1 VH
VL: MTQSPSSLSASVGHPVTITCRASQSLISYLNWYHQKPGKAPKLLIYAASILQSGVPSRFSGSGSGTDFTLTISSLQPENFASYYCQHTDSFPRTFGHGTKVEIKR
notes: as for B1
B8: hFab4.18 (Fab, V domains shown)
VH: B1 VH
VL: B5 VL with S23N, D28H, S78N, H95Q, V106L, E107D
notes: as for B1
B9: hFab4.3 (Fab, V domains shown)
VH: B1 VH
VL: B5 VL with L1M, K21R, V27I, D28H, N36D, K76R, V85I, G93A
notes: as for B1
B10: hFab4.7 (Fab, V domains shown)
VH: B1 VH
VL: B5 VL with L1M, K21R, D28H, T33M, G93A, H95Q, W96P, P97T, R98W, V106L
notes: as for B1
B11: hFab4.4 (Fab, V domains shown)
VH: B1 VH
VL: B5 VL with L1M, K21R, D30A, Y34F, N36H, Q39H
notes: as for B2
B12: hFab 1F7 (Fab, V domains shown)
VH: B1 VH
VL: LTQPPPASGTPGQRVTISCSGSSSNIGSNTVNWYQQLPGTAPKLLIYGNDQRPSGVPDRFSASKSGTSASLAISGLQSEDEAHYYCAAWDGSLNGGVIFGGGTKVTLG
notes: Human Fab from a phage display library; The heavy chain carries a 6x His tag and a myc tag, and the light chain was detected as kappa; also called 1F7 hFab; 1F7 Fab

Residue numbers refer to the chain shown, from its start.

The first experiment concerns the target T1, CD83-His (ectodomain of human CD83 with …). Description: relative binding of light chain shuffled clones against 1F7; CD83 construct not given.
B1: the binding result is “binds”.
As for B2, the binding result is “binds”.
With B3, the binding result is “binds”.
For B4, the binding result is listed as “binds”.
For the molecule B5, the binding result is given as “binds”.
On to B6, for which the binding result is recorded as “binds”.
Still for that read-out and setting: in the case of B7 it was “binds”; in that of B8, “binds”.
Same read-out and setting: to B9 belongs “binds”; to B10, “binds”.
Still for that read-out and setting: in the case of B11 it was “binds”.

For the next experiment the target is unchanged. Kind of experiment: ELISA on coated CD83-His, detection with anti-kappa-HRP antibody, absorbance at 450 nm. How it is done:
The reactivity of purified hFab 1F7 to CD83 was analysed by ELISA.
For orientation: An ELISA detects its analyte on a solid surface through an enzyme-linked reagent.
Turning to B12, the “EC50 (read off the curve)” value is around 2 µg/mL.

The target of another experiment is BSA (Bos taurus, UniProt P02769). Kind of experiment: ELISA on coated antigens, absorbance at 450 nm.
Chain of BSA (P02769 25-607 limits assumed): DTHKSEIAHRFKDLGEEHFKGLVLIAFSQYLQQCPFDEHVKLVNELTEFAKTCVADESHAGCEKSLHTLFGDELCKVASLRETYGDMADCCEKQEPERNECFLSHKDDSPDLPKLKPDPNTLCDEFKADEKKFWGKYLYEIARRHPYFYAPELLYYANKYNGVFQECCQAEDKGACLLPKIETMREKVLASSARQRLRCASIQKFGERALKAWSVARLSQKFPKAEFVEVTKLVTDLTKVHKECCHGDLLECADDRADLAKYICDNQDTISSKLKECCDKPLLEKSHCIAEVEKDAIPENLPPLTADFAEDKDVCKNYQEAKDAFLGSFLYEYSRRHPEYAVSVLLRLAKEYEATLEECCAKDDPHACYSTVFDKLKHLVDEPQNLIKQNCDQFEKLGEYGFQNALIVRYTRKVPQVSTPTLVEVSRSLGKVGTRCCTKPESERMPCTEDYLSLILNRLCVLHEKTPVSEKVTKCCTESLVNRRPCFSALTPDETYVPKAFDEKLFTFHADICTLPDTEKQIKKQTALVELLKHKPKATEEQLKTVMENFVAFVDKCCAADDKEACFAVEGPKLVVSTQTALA
Turning to B12, the binding result is “no binding”.

In the next experiment the target is T2, CD83-Fc (human CD83 ectodomain, Fc …). Description: binding of periplasmic hFab's to CD83-Fc, normalised to binding to 9E10.
Turning to B2, the binding result is “binds”.
The same measure, in the same setting: in the case of B5 it was “binds”; in that of B11, “binds”.
